{
  "source": "patent US20230183379A1",
  "about": "(INSERM INSTITUT NATIONAL DE LA SANT ET DE LA RECHERCHE M …, published 2023)",
  "binders": {"B1": {"name": "G9 scFv2-Fc (Fc fusion)", "chain": "QVQLVESGGGLVEPGGSLRLSCAASGFTFSNYAINWVRQAPGKGLEWVANIHHDGNGKYYVDSVEGRFTISRDNAKNSLYLQMDSLRAEDTAIYYCARDGYGGYLDLWGQGTLVTVSSGGGGSGGGGSGGGGSSELTQDPAVSVALGQTVRITCQGDSLRSYYASWYQQKPGQAPVLVIYGKNNRPSGIPDRFSGSGSGNTASLTITGAQAEDEADYYCAAWDDSLSGPVFGGGTKVTVLG", "notes": "Bivalent (scFv)2-Fc; also called G9-Fc; not shown: Fc fragment of human IgG1 (pFUSE-hFc2(IL2ss) vector)"}, "B2": {"name": "F12-IgG1 (IgG1 anti-TfR1 F12 antibody) (antibody, V domains shown)", "VH": "QVQLQESGGGLVQPGGSLRLSCAASGFSFNTYTMHWVRQAPGKGLEWVADIAYDGSTKYYADSVKGRFTISRDNAKNSLYLQMNSLRAEDTAVYYCARDAVAGEGYFDLWGRGTLVTVSS", "VL": "QSALTQDPAVSVALGQTVRITCQGDSLRSYYASWYQQLPGTAPKLLIYRNNQRPSGVPDRFSGSKSGTSASLAISGLRSEDEADYYCAAWDDSLSAWVFGGGTKLTVLG", "notes": "Human IgG1; Produced as monoclonal control beside the tetravalent BsAb; also called F12 (anti TfR1 Human IgG1); parental mAb anti-TfR1 F12"}, "B3": {"name": "F12 scFv2-Fc (Fc fusion)", "chain": "QVQLQESGGGLVQPGGSLRLSCAASGFSFNTYTMHWVRQAPGKGLEWVADIAYDGSTKYYADSVKGRFTISRDNAKNSLYLQMNSLRAEDTAVYYCARDAVAGEGYFDLWGRGTLVTVSSGGGGSGGGGSGGGGSQSALTQDPAVSVALGQTVRITCQGDSLRSYYASWYQQLPGTAPKLLIYRNNQRPSGVPDRFSGSKSGTSASLAISGLRSEDEADYYCAAWDDSLSAWVFGGGTKLTVLGA", "notes": "Bivalent (scFv)2-Fc; also called F12-Fc; not shown: Fc fragment of human IgG1 (pFUSE-hFc2(IL2ss) vector)"}, "B4": {"name": "H9 scFv2-Fc (Fc fusion)", "chain": "QVQLAESGGGLVKPGGSLRLSCAASGFTFSDYYMSWIRQAPGKGLEWVSYISTSGSSIYYVDSVKGRFTISRDNAKNSLYLQMDSLRDDDTAVYYCARDLHGDYAFDSWGQGTLVTVSSGGGGSGGGGSGGGGSSELTQDPAVSVALGQTVRITCQGDSLRSYYASWYQQKPGQAPVLVIYGKNNRPSGIPDRFSGSKSGNSASLDISGLQSEDEADYYCATWDDNLSGPIFGGGTKVTVLG", "notes": "Bivalent (scFv)2-Fc; also called H9-Fc; not shown: Fc fragment of human IgG1 (pFUSE-hFc2(IL2ss) vector)"}, "B5": {"name": "F2 scFv2-Fc (Fc fusion)", "chain": "QVQLQQSGGGVVQPGGSLRLSCAASEFTFSASGMHWVRQAPGKGLEWMAFIAYDGNQKFYADSVKGRFTISRDNSKNTLYLQMDSLRGEDTAVYYCAKEMQREGYFDYWGQGTLVTVSSGGGGSGGGGSGGGGSNFMLTQDPAVSVALGQTVRITCQGDSLRSYYASWYQQKPGQAPVLVIYGKNNRPSGIPDRFSGSKSGNSASLDISGLQSEDEADYYCATWDDNLSGPIFGGGTKVTVLG", "notes": "Bivalent (scFv)2-Fc; also called F2-Fc; not shown: Fc fragment of human IgG1 (pFUSE-hFc2(IL2ss) vector)"}, "B6": {"name": "VH4 anti-IL-6 human IgG1 (antibody, V domains shown)", "VH": "EVQLVQSGGGVVQPGESLRLSCAASGFTFSSYSMNWVRQAPGKGLEWVSVIYSGGSTYYADSVKGRFTISRDNSKNTLYLQMNSLRAEDTAVYYCAREVYHSSGYDDAFDIWGRGTMVTVSS", "VL": "DIQMTQSPSTLSASIGDRVTITCRASEGIYHWLAWYQQKPGKAPKLLIYKASSLASGAPSRFSGSGSGTDFTLTISSLQPDDFATYYCQQYSNYPLTFGGGTKLEIK", "notes": "Human IgG1; also called VH4-IgG1; anti-IL-6 VH4"}, "B7": {"name": "H7-IgG1 (full length human IgG1 anti-TfR1) (antibody, V domains shown)", "VH": "QVQLQESGGGVVQPGRSLRLSCAASRFTFSSYAMHWVRQAPGKGLEWVAVISYDGSNKYYADSVKGRFTISRDNSKNTLYLQMNSLRAEDTAVYYCARDLSGYGDYPDYWGQGTLVTVSS", "VL": "SELTQDPAVSVALGQTVRITCQGDSLRSYYASWYQQKPGQAPVLVMYGRNERPSGVPDRFSGSKSGTSASLAISGLQPEDEANYYCAGWDDSLTGPVFGGGTKLTVLG", "notes": "also called H7-anti-TfR1 IgG1"}, "B8": {"name": "C32-IgG1 (antibody, V domains shown)", "VH": "not shown", "VL": "DVVMTQSPSTLSASVGDRVTITCRASQYISNWLAWYQQKPGKAPKLLIYKASSLESGVPSRFSGSGSGTEFTLTISSLQPEDFATYYCQESYNTPLFTFGPGTKLEIKR", "notes": "Full length human IgG1; also called C32 (IgG1 format)"}, "B9": {"name": "H7-scFv2 (50 kD dimeric (scFv)2 H7 antibody) (scFv)", "scFv": "QVQLQESGGGVVQPGRSLRLSCAASRFTFSSYAMHWVRQAPGKGLEWVAVISYDGSNKYYADSVKGRFTISRDNSKNTLYLQMNSLRAEDTAVYYCARDLSGYGDYPDYWGQGTLVTVSSGGGGSGGGGSGGGGSSELTQDPAVSVALGQTVRITCQGDSLRSYYASWYQQKPGQAPVLVMYGRNERPSGVPDRFSGSKSGTSASLAISGLQPEDEANYYCAGWDDSLTGPVFGGGTKLTVLG"}, "B10": {"name": "scFv-Fc bispecific antibody (anti-TfR1 scFv / anti-IL-6 scFv, knob into hole Fc) (bispecific antibody)", "chain 1": "B9 scFv", "chain 2": "EVQLVQSGGGVVQPGESLRLSCAASGFTFSSYSMNWVRQAPGKGLEWVSVIYSGGSTYYADSVKGRFTISRDNSKNTLYLQMNSLRAEDTAVYYCAREVYHSSGYDDAFDIWGRGTMVTVSSGGGGSGGGGSGGGGSDIQMTQSPSTLSASIGDRVTITCRASEGIYHWLAWYQQKPGKAPKLLIYKASSLASGAPSRFSGSGSGTDFTLTISSLQPDDFATYYCQQYSNYPLTFGGGTKLEIK"}, "B11": {"name": "H7-scFv (monovalent) (scFv)", "scFv": "B9 scFv"}, "B12": {"name": "H7 scFv2-Fc (H7-Fc) (Fc fusion)", "chain": "B9 scFv", "notes": "Bivalent 100 kD (scFv)2-Fc made in HEK-293 T cells; not shown: Fc fragment of human IgG1 (pFUSE-hFc2(IL2ss) vector)"}},
  "key": {"[1]": {"target": "T1, transferrin receptor 1 (TfR1), human (human, UniProt P02786 1-760)", "T1 construct": "whole, on cells; always tested on cells; also called human TfR1; native TfR1", "T1 sequence (P02786 whole entry)": "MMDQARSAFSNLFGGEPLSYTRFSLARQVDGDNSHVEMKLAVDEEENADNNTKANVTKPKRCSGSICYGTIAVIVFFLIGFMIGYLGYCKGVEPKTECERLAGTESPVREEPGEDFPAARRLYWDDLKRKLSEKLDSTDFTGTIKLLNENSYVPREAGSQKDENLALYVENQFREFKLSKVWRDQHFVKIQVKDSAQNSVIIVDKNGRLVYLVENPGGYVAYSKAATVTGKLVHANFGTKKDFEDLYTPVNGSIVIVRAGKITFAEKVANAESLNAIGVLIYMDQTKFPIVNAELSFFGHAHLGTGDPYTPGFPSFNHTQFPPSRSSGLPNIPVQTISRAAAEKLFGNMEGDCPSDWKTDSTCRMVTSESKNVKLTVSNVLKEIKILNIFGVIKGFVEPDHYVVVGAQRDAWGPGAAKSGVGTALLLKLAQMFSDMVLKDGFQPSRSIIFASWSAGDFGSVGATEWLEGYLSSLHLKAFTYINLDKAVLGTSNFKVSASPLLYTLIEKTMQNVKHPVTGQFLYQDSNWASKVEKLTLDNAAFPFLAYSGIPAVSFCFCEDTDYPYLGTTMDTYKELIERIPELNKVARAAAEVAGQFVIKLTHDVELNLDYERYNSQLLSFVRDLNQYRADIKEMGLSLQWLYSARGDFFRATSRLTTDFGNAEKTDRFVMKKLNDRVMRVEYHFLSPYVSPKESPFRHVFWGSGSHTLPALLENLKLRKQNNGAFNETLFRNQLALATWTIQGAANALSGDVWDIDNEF", "assay": "FACS on human Raji cells, anti-human IgG1-FITC"}, "[2]": {"target": "T1, transferrin receptor 1 (TfR1), human", "assay": "FACS on Raji cells at 4 °C, anti-human IgG (Fc specific)-FITC"}, "[3]": {"target": "T1, transferrin receptor 1 (TfR1), human", "assay": "cell-based or functional assay"}, "[4]": {"target": "T2, transferrin receptor 1 (TfR1), mouse (mouse, UniProt Q62351 1-763)", "T2 construct": "whole, on cells; also called mouse TfR1", "T2 sequence (Q62351 whole entry)": "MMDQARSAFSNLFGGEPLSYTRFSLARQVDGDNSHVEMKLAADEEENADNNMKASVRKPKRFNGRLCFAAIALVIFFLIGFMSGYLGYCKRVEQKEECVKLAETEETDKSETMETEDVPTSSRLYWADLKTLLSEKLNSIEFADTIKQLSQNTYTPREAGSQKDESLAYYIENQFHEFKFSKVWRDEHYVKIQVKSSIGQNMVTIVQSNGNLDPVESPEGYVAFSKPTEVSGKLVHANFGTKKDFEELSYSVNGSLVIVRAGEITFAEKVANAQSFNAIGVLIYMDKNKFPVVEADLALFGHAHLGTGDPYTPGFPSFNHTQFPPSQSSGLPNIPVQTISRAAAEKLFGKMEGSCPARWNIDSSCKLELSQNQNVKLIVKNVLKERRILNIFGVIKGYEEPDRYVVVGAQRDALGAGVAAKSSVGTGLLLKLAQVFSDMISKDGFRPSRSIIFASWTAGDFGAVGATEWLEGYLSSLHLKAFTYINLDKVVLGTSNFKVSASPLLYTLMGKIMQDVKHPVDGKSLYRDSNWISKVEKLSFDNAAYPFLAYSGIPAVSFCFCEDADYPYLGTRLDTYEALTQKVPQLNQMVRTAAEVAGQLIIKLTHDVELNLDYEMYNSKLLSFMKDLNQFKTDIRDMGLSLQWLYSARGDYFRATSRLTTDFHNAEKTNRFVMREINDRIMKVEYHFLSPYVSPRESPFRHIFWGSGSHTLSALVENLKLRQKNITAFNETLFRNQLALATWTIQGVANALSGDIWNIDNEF", "assay": "FACS on mouse P815 cells, anti-human IgG1-FITC"}, "mouse IL-6": {"target": "T3, mouse IL-6 (mouse, UniProt P08505 25-211)", "T3 construct": "Bought recombinant protein; also called Recombinant mouse IL-6 (Peprotech, 216-16)", "T3 sequence (looked up)": "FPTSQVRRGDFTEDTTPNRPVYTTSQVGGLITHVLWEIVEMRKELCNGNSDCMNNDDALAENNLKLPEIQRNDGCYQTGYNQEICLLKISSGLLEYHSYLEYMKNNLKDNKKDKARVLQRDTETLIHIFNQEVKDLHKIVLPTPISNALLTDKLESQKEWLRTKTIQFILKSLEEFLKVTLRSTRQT", "assay": "ELISA on adsorbed recombinant mouse IL-6, pH 7.4, 40 nM antibody"}, "[5]": {"target": "T1, transferrin receptor 1 (TfR1), human", "assay": "FACS on Raji cells at 4 °C", "protocol": "All incubation steps were done on ice. Raji cells (5×10^5 cells) were resuspended in 100 μL of FACS buffer [PBS, 1% FBS] containing various concentrations of the primary antibody for 1 h, washed twice with FACS buffer, and then incubated with the suitable fluorescent secondary antibody. After a final wash, cells were analyzed by FACS. The apparent affinity was determined using the GraphPad software."}, "[6]": {"target": "T2, transferrin receptor 1 (TfR1), mouse", "assay": "FACS on mouse P815 cells at 4 °C"}},
  "data": [
    {"binder": "B1", "values": [
      {"measurement": "binding result", "setting": "[1]", "result": "binds"}
    ]},
    {"binder": "B2", "values": [
      {"measurement": "EC50", "setting": "[2]", "result": 1, "unit": "nM"},
      {"measurement": "viability of Raji cells, 3 days, IC50", "setting": "[3]", "result": 0.8, "unit": "nM"},
      {"measurement": "viability of XG6 and XG7 cells in 1% FCS, 3 days, IC50 of the combination F12 + VH4", "setting": "[3]", "result": 1, "unit": "nM"},
      {"measurement": "viability of XG6 cells, 5 days, IC50", "setting": "[3]", "result": 4, "unit": "nM"}
    ]},
    {"binder": "B3", "values": [
      {"measurement": "binding result", "setting": "[1]", "result": "binds"},
      {"measurement": "binding result", "setting": "[4]", "result": "binds"}
    ]},
    {"binder": "B4", "values": [
      {"measurement": "binding result", "setting": "[1]", "result": "binds"}
    ]},
    {"binder": "B5", "values": [
      {"measurement": "binding result", "setting": "[1]", "result": "binds"}
    ]},
    {"binder": "B6", "values": [
      {"measurement": "binding result", "setting": "mouse IL-6", "result": "binds"}
    ]},
    {"binder": "B7", "values": [
      {"measurement": "binding result", "setting": "[4]", "result": "no binding"}
    ]},
    {"binder": "B8", "values": [
      {"measurement": "binding result", "setting": "[4]", "result": "no binding"}
    ]},
    {"binder": "B9", "values": [
      {"measurement": "ERY-1 cell viability inhibition, IC50", "setting": "[3]", "result": 2, "unit": "nM"}
    ]},
    {"binder": "B10", "values": [
      {"measurement": "EC50", "setting": "[5]", "result": 30.1, "unit": "nM"}
    ]},
    {"binder": "B11", "values": [
      {"measurement": "ERY-1 cell viability inhibition, IC50", "setting": "[3]", "result": 200, "unit": "nM"}
    ]},
    {"binder": "B12", "values": [
      {"measurement": "EC50", "setting": "[6]", "result": 0.8, "unit": "nM"}
    ]}
  ]
}
